This passage reports Kd results from US20240218374.

For the data set, the target named is Spike S1 & S2 ECD (SARS-CoV-2) (UniProt P0DTC2). Kind of data set: filter.

The sequence “GGGANANNANGNGNNNGANNGNNNGGANG [26874-29_119]” came in with a dissociation constant (Kd) (Y=Tyr-dU, p=Nap-dC, position 8 POP-dU, value curated as assigned, Kd/Kd_20 1656) of 500 nM.
On to “GGGANANNANGNGNNNGANNGNNNGGANG [26874-29_142]”, for which the dissociation constant Kd (iBudU at 14, other dU Tyr-dU, dC Nap-dC, SB18T0.01, 37 C) is 0.37 nM.
Sequence “GGGANANNANGNGNNNGANNGNNNGGANG [26874-29_112]” had a Kd (MOEdU at 14, other dU Tyr-dU, dC Nap-dC, SB18T0.01, 37 C) of 0.56 nM.
Under “NEdU at 23, other dU Tyr-dU, dC Nap-dC, SB18T0.01, 37 C”, “GGGANANNANGNGNNNGANNGNNNGGANG [26874-29_84]” returned a Kd of 0.44 nM.
Turning to “GGGANANNANGNGNNNGANNGNNNGGANG [26874-29_108]”, the dissociation constant Kd (MOEdU at 8, other dU Tyr-dU, dC Nap-dC, SB18T0.01, 37 C) was determined as 0.72 nM.
With “GGGANANNANGNGNNNGANNGNNNGGANG [26874-29_57]”, the Kd (BndU at 5, other dU Tyr-dU, dC Nap-dC, SB18T0.01, 37 C) is 0.21 nM.
Where the note is “Y=Tyr-dU, p=Nap-dC, position 7 DCPE-dC, protein construct inferred”, “GGGANANNANGNGNNNGANNGNNNGGANG [OH-26874-29_332]” showed a Kd of 0.13 nM.
With “GGGANANNANGNGNNNGANNGNNNGGANG [26874-29_51]”, for the setting “NapdU at 10, other dU Tyr-dU, dC Nap-dC, SB18T0.01, 37 C”, the dissociation constant Kd was determined as 0.36 nM.
“GGGANANNANGNGNNNGANNGNNNGGANG [26874-29_115]” yielded a Kd (2NapdU at 23, other dU Tyr-dU, dC Nap-dC, SB18T0.01, 37 C) of 0.46 nM.
“GGGANANNANGNGNNNGANNGNNNGGANG [26874-29_86]” came in with an equilibrium dissociation constant (Kd) (BFdU at 5, other dU Tyr-dU, dC Nap-dC, SB18T0.01, 37 C) of 0.21 nM.
“GGGANANNANGNGNNNGANNGNNNGGANG [26874-29_60]” gave a Kd (Y=Tyr-dU, p=Nap-dC, position 10 Trp-dU, Kd/Kd_20 0.24) of 0.098 nM.
“GGGANANNANGNGNNNGANNGNNNGGANG [26874-29_65]” yielded a Kd (BndU at 23, other dU Tyr-dU, dC Nap-dC, SB18T0.01, 37 C) of 0.28 nM.
On to “GGGANANNANGNGNNNGANNGNNNGGANG [26874-29_138]”, for which the Kd (iBudU at 8, other dU Tyr-dU, dC Nap-dC, SB18T0.01, 37 C) amounted to 0.59 nM.
For “GGGANANNANGNGNNNGANNGNNNGGANG [26874-29_132]”, for the setting “2NEdU at 14, other dU Tyr-dU, dC Nap-dC, SB18T0.01, 37 C”, the dissociation constant Kd amounted to 0.27 nM.
With “GGGANANNANGNGNNNGANNGNNNGGANG [26874-29_97]”, the Kd (ThrdU at 5, other dU Tyr-dU, dC Nap-dC, SB18T0.01, 37 C) came to 0.29 nM.
As for “GGGANANNANGNGNNNGANNGNNNGGANG [26874-29_47]”, for the setting “NapdU at 5, other dU Tyr-dU, dC Nap-dC, SB18T0.01, 37 C”, the Kd was determined as 0.31 nM.
For the sequence “GGGANANNANGNGNNNGANNGNNNGGANG [26874-29_81]”, for the setting “PEdU at 10, other dU Tyr-dU, dC Nap-dC, SB18T0.01, 37 C”, the Kd came out at 0.16 nM.
For “GGGANANNANGNGNNNGANNGNNNGGANG [26874-29_134]”, the Kd (Y=Tyr-dU, p=Nap-dC, position 23 2NE-dU, very low plateau, faint spots) stood at 0.12 nM.
For the setting “NapdU at 14, other dU Tyr-dU, dC Nap-dC, SB18T0.01, 37 C”, “GGGANANNANGNGNNNGANNGNNNGGANG [26874-29_53]” showed a Kd of 0.2 nM.
For the sequence “GGGANANNANGNGNRNGANNGNNNGGANG [OH-26874-29_192]”, for the setting “Y=Tyr-dU, p=Nap-dC, position 15 PP-dC, protein construct inferred”, the Kd was 1000 nM.
Under “PPdU at 5, other dU Tyr-dU, dC Nap-dC, SB18T0.01, 37 C”, “GGGANANNANGNGNNNGANNGNNNGGANG [26874-29_87]” displayed a Kd of 0.25 nM.
On to “GGGANANNANGNGNNNGANNGNNNGGANG [OH-26874-29_181]”, for which the Kd (2Nap-dC at 7, other dC Nap-dC, dU Tyr-dU) worked out at 0.2 nM.
Regarding “GGGANANNANGNGNNNGANNGNNNGGANG [26874-29_101]”, for the setting “ThrdU at 10, other dU Tyr-dU, dC Nap-dC, SB18T0.01, 37 C”, the Kd was 0.36 nM.
On to “GGGANANNANGNGNNNGANNGNNNGGANG [26874-29_118]”, for which the Kd (BTdU at 8, other dU Tyr-dU, dC Nap-dC, SB18T0.01, 37 C) worked out at 0.39 nM.
Consider “GGGANANNANGNGNNNGANNGNNNGGANG [26874-29_124]”, for which the Kd (BTdU at 23, other dU Tyr-dU, dC Nap-dC, SB18T0.01, 37 C) is 0.64 nM.
Sequence “GGGACANNANGNGNNNGANNGNNNGGANG [26874-29_127]” returned a Kd (c3 (not defined) at 5, other dU Tyr-dU, dC Nap-dC, SB18T0.01, 37 C) of 0.28 nM.
Where the note is “2NEdU at 5, other dU Tyr-dU, dC Nap-dC, low plateau”, “GGGANANNANGNGNNNGANNGNNNGGANG [26874-29_126]” yielded a dissociation constant Kd of 0.65 nM.
Turning to “GGGANANNANGNGNNNGANNGNHNGGANG [26874-29_104]”, where the note is “ThdU at 23, other dU Tyr-dU, dC Nap-dC, SB18T0.01, 37 C”, the Kd was found to be 0.59 nM.
Regarding “GGGANANNANGNGNNNGANNGNNNGGANG [OH-26874-29_315]”, the Kd (Y=Tyr-dU, p=Nap-dC, position 12 PBn-dC, protein construct inferred) came out at 0.16 nM.
For the sequence “GGGANANNANGNGNNNGANNGNNNGGANG [26874-29_49]”, the Kd (NapdU at 8, other dU Tyr-dU, dC Nap-dC, SB18T0.01, 37 C) worked out at 0.4 nM.
Regarding “GGGANANNANGNGNNNGANNGNNNGGANG [26874-29_120]”, under “BTdU at 10, other dU Tyr-dU, dC Nap-dC, SB18T0.01, 37 C”, the Kd was found to be 0.24 nM.
As for “GGGANANNANGNGNNNGANNGNNNGGANG [OH-26874-29_328]”, the equilibrium dissociation constant (Kd) (Y=Tyr-dU, p=Nap-dC, position 20 DPP-dC) was found to be 0.038 nM.
Consider “GGGANANNANGNGNNNGANNGNNNGGANG [26874-29_150]”, for which the dissociation constant (Kd) (Y=Tyr-dU, p=Nap-dC, position 10 MBn-dU, Kd/Kd_20 38) came to 16 nM.
Where the note is “BFdU at 14 (Table 6B says PPdU), other dU Tyr-dU, dC Nap-dC, SB18T0.01, 37 C”, “GGGANANNANGNGNNNGANNGNNNGGANG [26874-29_91]” showed a dissociation constant Kd of 0.17 nM.
On to “GGGANANNANGNGNNNGANNGNNNGGANG [26874-29_76]”, for which, where the note is “NEdU at 5, other dU Tyr-dU, dC Nap-dC, SB18T0.01, 37 C”, the Kd was 0.46 nM.
Consider “GGGANANNANGNGNNNGANNGNNNGGANG [26874-29_78]”, for which the Kd (NEdU at 8, other dU Tyr-dU, dC Nap-dC, SB18T0.01, 37 C) turned out to be 0.24 nM.
For the sequence “GGGANANNANGNGNNNGANNGNNNGGANG [26874-29_155]”, the Kd (BPEdU at 23, other dU Tyr-dU, dC Nap-dC, SB18T0.01, 37 C) is 0.17 nM.
“GGGANANNANGNGNNNGANNGNNNGGANG [26874-29_63]” displayed an equilibrium dissociation constant (Kd) (BndU at 14, other dU Tyr-dU, dC Nap-dC, SB18T0.01, 37 C) of 0.16 nM.
In the case of “GGGANANNANGNGNNNGANNGNNNGGANG [26874-29_83]”, the Kd (PEdU at 14, other dU Tyr-dU, dC Nap-dC, SB18T0.01, 37 C) turned out to be 0.19 nM.
With “GGGANANNANGNGNNNGANNGNNNGGANG [26874-29_125]”, where the note is “POPdU at 23, other dU Tyr-dU, dC Nap-dC, low plateau”, the Kd amounted to 0.37 nM.
In the case of “GGGANANNANGNGNNNGANNGNNNGGANG [26874-29_82]”, the Kd (NEdU at 14, other dU Tyr-dU, dC Nap-dC, SB18T0.01, 37 C) was 0.18 nM.
The sequence “GGGANANNANGNGNNNGANNGNNNGGANG [26874-29_59]” gave a Kd (BndU at 8, other dU Tyr-dU, dC Nap-dC, SB18T0.01, 37 C) of 0.18 nM.
“GGGANANNANGNGNNNGANNGNNNGGANG [26874-29_62]” returned a dissociation constant (Kd) (Y=Tyr-dU, p=Nap-dC, position 14 Trp-dU, Kd/Kd_20 0.30) of 0.13 nM.
For the sequence “GGGANANNANGNGHNNGANNGNNNGGANG [26874-29_100]”, the Kd (ThdU at 14 as printed (same as _102; position 10 probably meant), other dU Tyr-dU, dC Nap-dC, SB18T0.01, 37 C) worked out at 0.49 nM.
With “GGGANANNANGNGNNNGANNGNNNGGANG [26874-29_74]”, the Kd (PBndU at 23, other dU Tyr-dU, dC Nap-dC, low plateau, very faint spots) was 0.46 nM.
As to “GGGANANNANGNGNNNGANNGNNNGGANG [26874-29_56]”, the Kd (TrpdU at 5, other dU Tyr-dU, dC Nap-dC, SB18T0.01, 37 C) came to 0.54 nM.
Sequence “GGGANANNANGNGNNNGANNGNNNGGANG [26874-29_106]” showed a Kd (MOEdU at 5, other dU Tyr-dU, dC Nap-dC, SB18T0.01, 37 C) of 0.66 nM.
Take “GGGANANNANGNGNNNGANNGNNNGGANG [26874-29_148]”: the dissociation constant (Kd) (MBndU at 8, other dU Tyr-dU, dC Nap-dC, low plateau) was 0.46 nM.
Consider “GGGANANNANGNGNNNGANNGNNNGGANG [26874-29_58]”, for which the Kd (TrpdU at 8, other dU Tyr-dU, dC Nap-dC, SB18T0.01, 37 C) is 0.27 nM.
“GGGANANNANGNGNNNGANNGNNNGGANG [26874-29_113]” returned an equilibrium dissociation constant (Kd) (2NapdU at 14, other dU Tyr-dU, dC Nap-dC, SB18T0.01, 37 C) of 0.32 nM.
Regarding “GGGANANNANGNGNNNGANNGNNNGGANG [26874-29_136]”, the Kd (iBudU at 5, other dU Tyr-dU, dC Nap-dC, SB18T0.01, 37 C) was found to be 0.57 nM.
“GGGANANNANGNGNNNGANNGNNNGGANG [26874-29_80]” registered a Kd (NEdU at 10, other dU Tyr-dU, dC Nap-dC, SB18T0.01, 37 C) of 0.16 nM.
“GGGAHANNANGNGNNNGANNGNNNGGANG [26874-29_96]” came in with a dissociation constant (Kd) (ThdU at 5, other dU Tyr-dU, dC Nap-dC, SB18T0.01, 37 C) of 0.27 nM.
Take “GGGANANNANGNGHNNGANNGNNNGGANG [26874-29_102]”: under “ThdU at 14, other dU Tyr-dU, dC Nap-dC, SB18T0.01, 37 C”, the dissociation constant Kd worked out at 0.45 nM.
As to “GGGANANNANGNGNNNGANNGNNNGGANG [26874-29_61]”, the Kd (BndU at 10, other dU Tyr-dU, dC Nap-dC, SB18T0.01, 37 C) is 0.31 nM.
Consider “GGGANANNANGNGNNNGANNGNNNGGANG [26874-29_89]”, for which the equilibrium dissociation constant (Kd) (PPdU at 8, other dU Tyr-dU, dC Nap-dC, SB18T0.01, 37 C) is 0.2 nM.
For “GGGANANNANGNGNNNGANNGNNNGGANG [26874-29_79]”, the equilibrium dissociation constant (Kd) (PEdU at 8, other dU Tyr-dU, dC Nap-dC, SB18T0.01, 37 C) was determined as 0.17 nM.
“GGGANANNANGNGNNNGANNGNNNGGANG [26874-29_64]” displayed an equilibrium dissociation constant (Kd) (TrpdU at 23, other dU Tyr-dU, dC Nap-dC, SB18T0.01, 37 C) of 0.27 nM.

What is called Kd is the concentration at which binding is half-saturated.
